The supplement of paper PMC9233669
This sample holds only a part of the variants without activity.

Legend:
biotinyl-Leu-oxazolone = test: self-aminoacylation, catalytic enhancement (BLO) (fold over background); higher = more active; k-Seq, kA / k0A0; sequences stand for … in GGGAAUGGAUCCACAUCUACGAAUUC…UUCACUGCAGACUUGACGAAGCUG
Method in brief: (§1)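 Mutagenized RNA pools (0.43 μM; 21-nt variable region) were treated with 2–1250 μM of each biotinyl-aminoacyl-oxazolone. Conditions were 50 μL HEPES/NaCl/KCl/MgCl2/CaCl2 buffer, 5% acetonitrile, pH 6.9–7.0, room temperature, 90 minutes. Catalytic enhancement, the median kA relative to the uncatalyzed rate, was derived from streptavidin capture, qPCR and Illumina sequencing.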

biotinyl-Ile-oxazolone = test: self-aminoacylation, catalytic enhancement (BIO) (fold over background); higher = more active; k-Seq, kA / k0A0; sequences stand for … in GGGAAUGGAUCCACAUCUACGAAUUC…UUCACUGCAGACUUGACGAAGCUG
Method in brief: as §1

biotinyl-Phe-oxazolone = test: self-aminoacylation, catalytic enhancement (BFO) (fold over background); higher = more active; k-Seq, kA / k0A0; sequences stand for … in GGGAAUGGAUCCACAUCUACGAAUUC…UUCACUGCAGACUUGACGAAGCUG
Method in brief: as §1

biotinyl-Trp-oxazolone = test: self-aminoacylation, catalytic enhancement (BWO) (fold over background); higher = more active; k-Seq, kA / k0A0; sequences stand for … in GGGAAUGGAUCCACAUCUACGAAUUC…UUCACUGCAGACUUGACGAAGCUG
Method in brief: as §1

biotinyl-Met-oxazolone = test: self-aminoacylation, catalytic enhancement (BMO) (fold over background); higher = more active; k-Seq, kA / k0A0; sequences stand for … in GGGAAUGGAUCCACAUCUACGAAUUC…UUCACUGCAGACUUGACGAAGCUG
Method in brief: as §1

biotinyl-Val-oxazolone = test: self-aminoacylation, catalytic enhancement (BVO) (fold over background); higher = more active; k-Seq, kA / k0A0; sequences stand for … in GGGAAUGGAUCCACAUCUACGAAUUC…UUCACUGCAGACUUGACGAAGCUG
Method in brief: as §1

Sequence | self-aminoacylation (biotinyl-Leu-oxazolone) | self-aminoacylation (biotinyl-Ile-oxazolone) | self-aminoacylation (biotinyl-Phe-oxazolone) | self-aminoacylation (biotinyl-Trp-oxazolone) | self-aminoacylation (biotinyl-Met-oxazolone) | self-aminoacylation (biotinyl-Val-oxazolone)
AAGUUCGCUUAUAGUCGCAAG [Fam3.1 aminoacylation ribozyme variant] | 1.84 | 1.86 | 1.99 | 2.23 | 2.03 | 1.5
AUUCACCAAGGUCACCGGGUG [Fam2.2 aminoacylation ribozyme variant] | 9.86 | 5.1 | 55.5 | 5.09 | 8.25 | 6.12
ACUCACCUAGGUCAUCUGGUG [Fam2.2 aminoacylation ribozyme variant] | 2.03 | 1.68 | 6.43 | 2.35 | 1.87 | 1.57
AAGUUUGCUAAUAGUCACGAG [Fam3.1 aminoacylation ribozyme variant] | 0.881 | 1.26 | 1.54 | 1.34 | 1.33 | 1.22
AUUAACCUCGGUCAUCGGGUG [Fam2.2 aminoacylation ribozyme variant] | 5.54 | 3.13 | 28.5 | 3.74 | 5.08 | 3.76
CUUCACCUAGGUCACCGGGUG [Fam2.2 aminoacylation ribozyme variant] | 5.4 | 2.92 | 21.9 | 5.51 | 3.54 | 3.81
AUUGCCCUGGUCAUCGAGUGA [Fam2.1 aminoacylation ribozyme variant] | 51.2 | 20.6 | 367 | 60 | 53.1 | 23.7
AUUCACCUAGGUCAUGGGGGG [Fam2.2 aminoacylation ribozyme variant] | 3.18 | 2.55 | 1.11 | 2.23 | 2.72 | 2
AUUUACCUAGGUAAUCGGGUG [Fam2.2 aminoacylation ribozyme variant] | 3.42 | 1.85 | 17.3 | 2.92 | 2.75 | 1.78
CUAAUUCACACAAUCGGUCUG [Fam1A.1 aminoacylation ribozyme variant] | 0.85 | 0.912 | 0.759 | 0.598 | 0.874 | 0.771
CCACAAUUCAAGUAAUCGGUC [Fam1B.1 aminoacylation ribozyme variant] | 0.898 | 0.96 | 2.55 | 1.36 | 0.906 | 0.91
CUACUUCAAAUAAACGGUCUG [Fam1A.1 aminoacylation ribozyme variant] | 0.71 | 0.719 | 0.881 | 0.692 | 0.537 | 0.777
AUUCACAUGGGUCAUCGGGUG [Fam2.2 aminoacylation ribozyme variant] | 11.6 | 5.6 | 70.4 | 8.84 | 9.66 | 5.96
AUUCACAUAGGUGAUCGGGUG [Fam2.2 aminoacylation ribozyme variant] | 3.56 | 3.05 | 20.5 | 3.79 | 3.4 | 3.14
CUACUUCAAACAAUCAGUCUC [Fam1A.1 aminoacylation ribozyme variant] | 0.872 | 0.833 | 25.9 | 8 | 0.723 | 0.904
AAGUUUGCUCAUAGUCGCAUG [Fam3.1 aminoacylation ribozyme variant] | 0.903 | 1.05 | 0.909 | 0.856 | 0.893 | 1.04
CUACUUCAAACAGUCGGUCUU [Fam1A.1 aminoacylation ribozyme variant] | 1.13 | 1.1 | 0.838 | 0.563 | 0.925 | 0.819
CCACACUACAAGCAACCGGUC [Fam1B.1 aminoacylation ribozyme variant] | 0.948 | 1.29 | 1.03 | 0.793 | 0.649 | 0.674
CUACUUCAAACAAUCAGUAUG [Fam1A.1 aminoacylation ribozyme variant] | 0.777 | 0.847 | 6.02 | 2.46 | 0.891 | 0.819
CCACACUUCAAGCUCUCGGUC [Fam1B.1 aminoacylation ribozyme variant] | 1.25 | 1.21 | 0.716 | 1.1 | 1.14 | 1.42
AUUACCCUGGUCAUCUAGUGC [Fam2.1 aminoacylation ribozyme variant] | 1.08 | 0.835 | 1.27 | 0.68 | 1.06 | 1
CUACUUCACACAAUGGGUCUG [Fam1A.1 aminoacylation ribozyme variant] | 0.775 | 0.865 | 0.647 | 0.589 | 0.826 | 0.754
CGACUUCAAACAAUCGGUCGG [Fam1A.1 aminoacylation ribozyme variant] | 2.68 | 2.47 | 9.34 | 5.43 | 1.99 | 2.08
CCACUCUUCAGGCAAUCGGUC [Fam1B.1 aminoacylation ribozyme variant] | 1.33 | 1.31 | 0.929 | 1.23 | 1.34 | 1.49
CUACUUCGAGCAAUCGGUCUG [Fam1A.1 aminoacylation ribozyme variant] | 0.815 | 0.951 | 0.728 | 0.703 | 1.15 | 1.01
GUACUUCAAACAAUCGUUCUG [Fam1A.1 aminoacylation ribozyme variant] | 0.972 | 1.15 | 2.04 | 2.37 | 0.889 | 1.13

Sequence | self-aminoacylation (biotinyl-Leu-oxazolone) | self-aminoacylation (biotinyl-Ile-oxazolone) | self-aminoacylation (biotinyl-Phe-oxazolone) | self-aminoacylation (biotinyl-Trp-oxazolone) | self-aminoacylation (biotinyl-Met-oxazolone) | self-aminoacylation (biotinyl-Val-oxazolone)
AUUGCCCUGGUCAUCUAGUGA [Fam2.1 aminoacylation ribozyme variant] | 8.79 | 3.81 | 70.6 | 10.3 | 8.83 | 4.24
AUUUCACUGGUCAUCGAGUGA [Fam2.1 aminoacylation ribozyme variant] | 4.92 | 2.99 | 19.9 | 6.42 | 4.7 | 2.85
AUUCCCCUAGGUCAUGGGGUG [Fam2.2 aminoacylation ribozyme variant] | 24.7 | 11.3 | 167 | 15.8 | 19 | 11.1
CCACAUUUCAAGCAAUCGUUC [Fam1B.1 aminoacylation ribozyme variant] | 0.798 | 0.94 | 1.13 | 0.727 | 0.83 | 1.16
AAGUUUGCUUAUAGUGGCAAG [Fam3.1 aminoacylation ribozyme variant] | 0.644 | 0.789 | 1.38 | 0.94 | 0.861 | 0.711
CUACUUUAAACAAUAGGUCUG [Fam1A.1 aminoacylation ribozyme variant] | 0.841 | 0.925 | 0.945 | 0.648 | 0.979 | 0.891
AGUACCCUGGCCAUCGAGUGA [Fam2.1 aminoacylation ribozyme variant] | 4.09 | 2.53 | 10.2 | 4.09 | 3.41 | 3.11
CUACACUUCAAGCAAUCGAUC [Fam1B.1 aminoacylation ribozyme variant] | 0.458 | 0.527 | 2.02 | 0.769 | 0.404 | 0.649
AAGUUUGGUAAGAGUCGCAAG [Fam3.1 aminoacylation ribozyme variant] | 1.43 | 1.58 | 1.7 | 1.31 | 1.3 | 1.3
CCACAGUUCAAGCUAUCGGUC [Fam1B.1 aminoacylation ribozyme variant] | 1.1 | 1.21 | 0.851 | 0.749 | 1.25 | 1.27
AUUCAUCUAAGUCAUCGGGUG [Fam2.2 aminoacylation ribozyme variant] | 15 | 6.41 | 86.6 | 10.9 | 10.9 | 5.64
AUUCACCUCGGUCAUCGGUUG [Fam2.2 aminoacylation ribozyme variant] | 1.25 | 0.923 | 5.88 | 0.911 | 1.07 | 1.07
AAGUUUGCUAAUACUGGCAAG [Fam3.1 aminoacylation ribozyme variant] | 0.696 | 0.642 | 0.739 | 0.458 | 0.481 | 0.571
AUUCUCCUAGGUCCUCGGGUG [Fam2.2 aminoacylation ribozyme variant] | 10.5 | 4.72 | 54.1 | 7.62 | 6.44 | 4.54
AUUGACCUAGGUCGUCGGGUG [Fam2.2 aminoacylation ribozyme variant] | 1.6 | 1.78 | 10.2 | 2.2 | 1.44 | 1.81
AUUACCCGGGUCAUCGGGUGA [Fam2.1 aminoacylation ribozyme variant] | 14.7 | 6.62 | 132 | 12.4 | 13.9 | 7.9
CCACACUUCAAGGUAUCGGUC [Fam1B.1 aminoacylation ribozyme variant] | 0.907 | 0.941 | 0.829 | 1.28 | 0.95 | 0.995
CUACUUCAAACACUCGGUGUG [Fam1A.1 aminoacylation ribozyme variant] | 1.5 | 1.81 | 4.18 | 1.63 | 1.72 | 1.59
ACACACUUCAAGCAAUCGCUC [Fam1B.1 aminoacylation ribozyme variant] | 1.75 | 1.84 | 2.24 | 2.57 | 1.63 | 1.92
AAUACCCUGCUCAUCGAGUGA [Fam2.1 aminoacylation ribozyme variant] | 1.6 | 1.08 | 1.69 | 1.17 | 1.22 | 1.3
ACCCACUUCAAGCAAUCGGUC [Fam1B.1 aminoacylation ribozyme variant] | 1.37 | 1.11 | 23.3 | 15.2 | 1.15 | 1.29
CUACUUCAGACAAUGGGUCUG [Fam1A.1 aminoacylation ribozyme variant] | 0.916 | 0.948 | 0.994 | 0.664 | 0.798 | 0.791
CUAAACUUCAAGCAAUCGGUC [Fam1B.1 aminoacylation ribozyme variant] | 1.26 | 0.956 | 33.1 | 15.1 | 0.876 | 1.03
AAGUUUGCUAAUAGGCCCAAG [Fam3.1 aminoacylation ribozyme variant] | 0.847 | 1.32 | 0.737 | 1.2 | 0.899 | 1.23
AUUGCUCUGGUCAUCGAGUGA [Fam2.1 aminoacylation ribozyme variant] | 5.71 | 3.33 | 6.13 | 6.59 | 6.02 | 3.3
